Our source for the Relative cAMP EC50, cAMP Rel EC50 (1% HSA) and cAMP Rel EC50, nM (1% HSA) values is patent US20240270821A1, “GIP/GLP1/GCG TRI-RECEPTOR AGONISTS AND USES THEREOF” (priority 2023, published 2024).

What all share (experiment): cell-based or functional assay
Assay [1] deals with human glucagon receptor (human) (UniProt P47871).
Assay [2] addresses hGLP-1R (Homo sapiens, UniProt P43220).
In assay [3] the target is T1, human GIP receptor (human) (UniProt P48546).
T1 sequence (looked up): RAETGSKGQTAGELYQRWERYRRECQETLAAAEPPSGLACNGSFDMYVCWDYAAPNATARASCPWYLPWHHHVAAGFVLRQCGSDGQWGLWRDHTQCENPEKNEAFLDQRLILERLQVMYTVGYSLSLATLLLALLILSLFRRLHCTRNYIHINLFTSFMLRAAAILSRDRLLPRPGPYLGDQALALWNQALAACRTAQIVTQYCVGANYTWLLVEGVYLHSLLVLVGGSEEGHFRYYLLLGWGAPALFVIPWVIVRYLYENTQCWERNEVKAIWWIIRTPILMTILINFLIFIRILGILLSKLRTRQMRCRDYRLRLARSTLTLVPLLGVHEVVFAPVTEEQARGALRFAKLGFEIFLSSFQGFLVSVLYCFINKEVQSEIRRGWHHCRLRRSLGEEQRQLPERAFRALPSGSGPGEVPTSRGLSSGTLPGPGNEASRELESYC

hGLP-1R, sequence (P43220 24-463): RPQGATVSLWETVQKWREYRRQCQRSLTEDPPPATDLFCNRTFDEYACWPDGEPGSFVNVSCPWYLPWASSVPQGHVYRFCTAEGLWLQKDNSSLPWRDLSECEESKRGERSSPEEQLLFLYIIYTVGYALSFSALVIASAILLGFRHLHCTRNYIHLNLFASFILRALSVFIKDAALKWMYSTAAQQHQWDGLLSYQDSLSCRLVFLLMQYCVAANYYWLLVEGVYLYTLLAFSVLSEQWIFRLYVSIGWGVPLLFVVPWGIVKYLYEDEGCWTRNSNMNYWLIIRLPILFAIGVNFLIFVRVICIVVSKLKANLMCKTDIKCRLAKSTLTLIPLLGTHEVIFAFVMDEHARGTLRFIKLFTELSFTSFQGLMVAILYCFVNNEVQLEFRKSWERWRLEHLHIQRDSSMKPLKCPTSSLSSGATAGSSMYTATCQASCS
human glucagon receptor (human), sequence (P47871 26-477): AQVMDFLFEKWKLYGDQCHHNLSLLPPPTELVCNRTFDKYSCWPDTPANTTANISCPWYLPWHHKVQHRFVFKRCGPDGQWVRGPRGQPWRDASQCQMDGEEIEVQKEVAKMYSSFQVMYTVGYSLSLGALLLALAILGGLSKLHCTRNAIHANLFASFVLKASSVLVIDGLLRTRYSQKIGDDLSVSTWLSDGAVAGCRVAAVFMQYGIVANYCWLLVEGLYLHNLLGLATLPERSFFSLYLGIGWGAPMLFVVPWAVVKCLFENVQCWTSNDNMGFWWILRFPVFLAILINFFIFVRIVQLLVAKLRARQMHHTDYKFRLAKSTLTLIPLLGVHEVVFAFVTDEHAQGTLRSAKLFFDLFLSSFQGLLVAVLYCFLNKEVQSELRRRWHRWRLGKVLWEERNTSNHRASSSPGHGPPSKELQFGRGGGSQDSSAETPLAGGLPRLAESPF

B1: Example 698 (peptide)
chain: YXQGTXTSDXXIXLDXKAQXXFIEXLIEGGPSSGEPPPEGE
modifications: synthetic construct; SITE 2: note = 2-Aminoisobutyric Acid; SITE 6: note = alpha-methyl-2-fluoro-L-phenylalanine; SITE 10: note = 3-(4-Pyridyl)-L-alanine; SITE 11: note = alpha-methyl-L-serine; SITE 13: note = alpha-methyl-leucine; SITE 16: note = L-ornithine; SITE 17: note = Lysine is chemically mo
Regarding B1, the Relative cAMP EC50 is 1.53 nM in assay [1], 0.252 nM in assay [2] and 0.0112 nM in assay [3]. For the same molecule, the values for the cAMP Rel EC50 (1% HSA) in assay [1], in assay [2] and in assay [3] were 124 nM, 20.6 nM and 0.824 nM, respectively.

B2: Example 750 (peptide)
chain: YXQGTXTSDXXIXLDXKAQXEFIEXLVEGGPSSGEPPPSGE
modifications: synthetic construct; SITE 2: note = 2-Aminoisobutyric Acid; SITE 6: note = alpha-methyl-2-fluoro-L-phenylalanine; SITE 10: note = 3-(4-Pyridyl)-L-alanine; SITE 11: note = alpha-methyl-L-serine; SITE 13: note = alpha-methyl-leucine; SITE 16: note = L-ornithine; SITE 17: note = Lysine is chemically mo
On to B2, for which the figures for the Relative cAMP EC50 in assay [1], in assay [2] and in assay [3] were 2 nM, 0.302 nM and 0.00784 nM, respectively. Moreover, the figures for the cAMP Rel EC50, nM (1% HSA) in assay [1], in assay [2] and in assay [3] were 205 nM, 39.1 nM and 1.34 nM, respectively.

B3: Example 749 (peptide)
chain: YXQGTXTSDXXIXLDXKAQXEFIEXLVEGGPSSGAPPPSGE
modifications: synthetic construct; SITE 2: note = 2-Aminoisobutyric Acid; SITE 6: note = alpha-methyl-2-fluoro-L-phenylalanine; SITE 10: note = 3-(4-Pyridyl)-L-alanine; SITE 11: note = alpha-methyl-L-serine; SITE 13: note = alpha-methyl-leucine; SITE 16: note = L-ornithine; SITE 17: note = Lysine is chemically mo
For B3, the Relative cAMP EC50 was 2.21 nM in assay [1], 0.293 nM in assay [2] and 0.00718 nM in assay [3]. Besides, the cAMP Rel EC50, nM (1% HSA) in assay [1] stood at 28 nM; in assay [2], 33.9 nM; in assay [3] it was 1.47 nM.

B4: Example 722 (peptide)
chain: YXQGTXTSDXXIXLDXKAAXEFIEXLIEGGPSSGAPPPSGX
modifications: C-terminal γGlu; C-terminal amide; synthetic construct; SITE 2: note = 2-Aminoisobutyric Acid; SITE 6: note = alpha-methyl-2-fluoro-L-phenylalanine; SITE 10: note = 3-(4-Pyridyl)-L-alanine; SITE 11: note = alpha-methyl-L-serine; SITE 13: note = alpha-methyl-leucine; SITE 16: note = L-ornithine; SITE 17: note = Lysine is chemically mo
B4: the Relative cAMP EC50 is 1.71 nM in assay [1], 0.252 nM in assay [2] and 0.01 nM in assay [3]. In addition, the cAMP Rel EC50 (1% HSA) in assay [1] amounted to 170 nM; in assay [2], 27.2 nM; in assay [3] it was 0.953 nM.

B5: Example 707 (peptide)
chain: YXQGTXTSDXXIXLDXKAAXEFIEXLIEGGPSSGEPPPSGS
modifications: synthetic construct; SITE 2: note = 2-Aminoisobutyric Acid; SITE 6: note = alpha-methyl-2-fluoro-L-phenylalanine; SITE 10: note = 3-(4-Pyridyl)-L-alanine; SITE 11: note = alpha-methyl-L-serine; SITE 13: note = alpha-methyl-leucine; SITE 16: note = L-ornithine; SITE 17: note = Lysine is chemically mo
Regarding B5, the Relative cAMP EC50 in assay [1] came out at 1.06 nM; in assay [2] it was 0.248 nM; in assay [3] it was 0.0107 nM. Besides, the cAMP Rel EC50 (1% HSA) in assay [1] is 199 nM; in assay [2] it was 30.6 nM; in assay [3] it was 1.05 nM.

B6: Example 702 (peptide)
chain: YXQGTXTSDXXIXLDXKAAXEFIEXLIEGGPSSGAPPPSGSE
modifications: synthetic construct; SITE 2: note = 2-Aminoisobutyric Acid; SITE 6: note = alpha-methyl-2-fluoro-L-phenylalanine; SITE 10: note = 3-(4-Pyridyl)-L-alanine; SITE 11: note = alpha-methyl-L-serine; SITE 13: note = alpha-methyl-leucine; SITE 16: note = L-ornithine; SITE 17: note = Lysine is chemically mo
With B6, the Relative cAMP EC50 amounted to 1.5 nM in assay [1], 0.243 nM in assay [2] and 0.0116 nM in assay [3]. Moreover, the cAMP Rel EC50 (1% HSA) in assay [1] is 196 nM; in assay [2] it was 28.4 nM; in assay [3], 1.25 nM.

B7: Example 719 (peptide)
chain: YXQGTXTSDXXIXLDXKAAXEFIEXLIEGGPSSGEPPPSGTE
modifications: synthetic construct; SITE 2: note = 2-Aminoisobutyric Acid; SITE 6: note = alpha-methyl-2-fluoro-L-phenylalanine; SITE 10: note = 3-(4-Pyridyl)-L-alanine; SITE 11: note = alpha-methyl-L-serine; SITE 13: note = alpha-methyl-leucine; SITE 16: note = L-ornithine; SITE 17: note = Lysine is chemically mo
On to B7, for which the Relative cAMP EC50 is 1.44 nM in assay [1], 0.22 nM in assay [2] and 0.00998 nM in assay [3]. The cAMP Rel EC50 (1% HSA) was found to be 181 nM in assay [1], 23.2 nM in assay [2] and 0.882 nM in assay [3].

B8: Example 720 (peptide)
chain: YXQGTXTSDXXIXLDXKAAXEFIEXLIEGGPSSGEPPPSGSE
modifications: synthetic construct; SITE 2: note = 2-Aminoisobutyric Acid; SITE 6: note = alpha-methyl-2-fluoro-L-phenylalanine; SITE 10: note = 3-(4-Pyridyl)-L-alanine; SITE 11: note = alpha-methyl-L-serine; SITE 13: note = alpha-methyl-leucine; SITE 16: note = L-ornithine; SITE 17: note = Lysine is chemically mo
Regarding B8, the Relative cAMP EC50 worked out at 1.78 nM in assay [1], 0.245 nM in assay [2] and 0.0103 nM in assay [3]. The results for the cAMP Rel EC50 (1% HSA) in assay [1], in assay [2] and in assay [3] were 239 nM, 28.3 nM and 1.02 nM, respectively.

B9: Example 703 (peptide)
chain: YXQGTXTSDXXIXLDXKAAXEFIEXLIEGGPSSGAPPPSGEE
modifications: synthetic construct; SITE 2: note = 2-Aminoisobutyric Acid; SITE 6: note = alpha-methyl-2-fluoro-L-phenylalanine; SITE 10: note = 3-(4-Pyridyl)-L-alanine; SITE 11: note = alpha-methyl-L-serine; SITE 13: note = alpha-methyl-leucine; SITE 16: note = L-ornithine; SITE 17: note = Lysine is chemically mo
B9: the Relative cAMP EC50 stood at 1.56 nM in assay [1], 0.233 nM in assay [2] and 0.0101 nM in assay [3]. For the same molecule, the cAMP Rel EC50 (1% HSA) in assay [1] was 201 nM; in assay [2] it was 27.1 nM; in assay [3], 0.961 nM.

B10: Example 751 (peptide)
chain: YXQGTXTSDXXIXLDXKAQXEFIEXLVEGGPSSGAPPPSGSE
modifications: synthetic construct; SITE 2: note = 2-Aminoisobutyric Acid; SITE 6: note = alpha-methyl-2-fluoro-L-phenylalanine; SITE 10: note = 3-(4-Pyridyl)-L-alanine; SITE 11: note = alpha-methyl-L-serine; SITE 13: note = alpha-methyl-leucine; SITE 16: note = L-ornithine; SITE 17: note = Lysine is chemically mo
B10: the Relative cAMP EC50 in assay [1] amounted to 1.9 nM; in assay [2] it was 0.302 nM; in assay [3] it was 0.00759 nM. The cAMP Rel EC50, nM (1% HSA) in assay [1] worked out at 267 nM; in assay [2], 32.3 nM; in assay [3] it was 1.27 nM.

B11: Example 752 (peptide)
chain: YXQGTXTSDXXIXLDXKAQXEFIEXLVEGGPSSGEPPPSGSE
modifications: synthetic construct; SITE 2: note = 2-Aminoisobutyric Acid; SITE 6: note = alpha-methyl-2-fluoro-L-phenylalanine; SITE 10: note = 3-(4-Pyridyl)-L-alanine; SITE 11: note = alpha-methyl-L-serine; SITE 13: note = alpha-methyl-leucine; SITE 16: note = L-ornithine; SITE 17: note = Lysine is chemically mo
For B11, the Relative cAMP EC50 in assay [1] came out at 1.9 nM; in assay [2], 0.274 nM; in assay [3] it was 0.00689 nM. In addition, the cAMP Rel EC50, nM (1% HSA) was 228 nM in assay [1], 44 nM in assay [2] and 1.74 nM in assay [3].
